# Results published in the supplement of paper PMC10126150.
# ± gives the standard deviation of the averaged measurements.
# System: ATP
# Assay: switch fluorescence ratio, 500 uM ATP over buffer (Cy3 cluster intensity, sum of 5 cycles each) (fold (ratio)); higher = stronger signal-on switching upon ATP binding; sequences stand for … in TCGTCGGCAGCGTCAGATGTGTATAAGAGACAGTTTTTTTTTTTTTTTTTTTTTTTTT…TC
# Conditions: aptamer strand: ATP DNA aptamer (quencher-CACCTGGGGGAGTATTGCGGAGGAAGG + anchor), 100 nM annealed; ATP concentration: 500 uM
# In short: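 The fluorescence ratio divides summed target-cycle Cy3 intensity by summed buffer-cycle Cy3 intensity for each cluster and is averaged per switch-domain sequence. Cy3-labelled switching-strand clusters on a modified Illumina MiSeq flow-cell were annealed to 100 nM quencher-labelled ATP aptamer, then imaged in selection buffer and again after 15 min with 500 uM ATP at 22 °C. Five such cycles were run, with NaOH stripping and re-annealing between them, and clusters outside 100-1000 RFU were excluded.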
# 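Note: ATP exposure 15 min at 22 °C before imaging.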
row,Sequence,switch fluorescence ratio
1,GTTTGGGAAC,1.02 ± 0.019
2,GTTTGGGGCC,1.057 ± 0.01
3,GTTTGGGTGA,1 ± 0.026
4,GTTTGGGTGG,0.9979 ± 0.0065
5,GTTTGGTATG,0.988 ± 0.017
6,GTTTGGTCTT,0.95 ± 0.017
7,GTTTGGTTTT,0.99 ± 0.014
8,GTTTGTCCTG,1.007 ± 0.0071
9,GTTTGTGAAC,0.9821 ± 0.006
10,GTTTGTGGAG,0.9683 ± 0.0071
11,GTTTGTGGGT,0.977 ± 0.011
12,GTTTGTGGTG,1.01 ± 0.017
13,GTTTGTGTTG,0.993 ± 0.017
14,GTTTGTTATG,0.999 ± 0.042
15,GTTTGTTCGG,0.995 ± 0.015
16,GTTTGTTTAC,0.987 ± 0.014
17,GTTTTAAGTG,0.981 ± 0.034
18,GTTTTAATTA,1.01 ± 0.021
19,GTTTTAGCGC,1 ± 0.049
20,GTTTTAGGGA,0.979 ± 0.037
21,GTTTTATCAG,0.961 ± 0.039
22,GTTTTATGCG,1.02 ± 0.035
23,GTTTTATTCT,1 ± 0.023
24,GTTTTATTGA,0.986 ± 0.015
25,GTTTTCATGG,0.996 ± 0.013

row,Sequence,switch fluorescence ratio
1,GTTTTCCGGG,1.01 ± 0.027
2,GTTTTCGTCG,1.01 ± 0.054
3,GTTTTCTGTT,1.0024 ± 0.00021
4,GTTTTGGCG,1.03 ± 0.032
5,GTTTTGGTCG,0.9894 ± 0.007
6,GTTTTGTAAG,1 ± 0.023
7,GTTTTGTGCA,0.9978 ± 0.0052
8,GTTTTTACTA,0.998 ± 0.014
9,GTTTTTCTGG,0.9738 ± 0.0078
10,GTTTTTGAAT,0.992 ± 0.033
11,GTTTTTGACG,0.955 ± 0.042
12,GTTTTTGATG,0.971 ± 0.021
13,GTTTTTGGGT,0.984 ± 0.033
14,GTTTTTTCGA,1.024 ± 0.0051
15,GTTTTTTGCT,0.9809 ± 0.0051
16,GTTTTTTGTT,0.999 ± 0.043
17,GTTTTTTTCT,1 ± 0.051
18,GTTTTTTTGA,1.0032 ± 0.00018
19,TAAAAAAGAG,0.98 ± 0.03
20,TAAAAAAGGT,1.04 ± 0.088
21,TAAAAAAGTG,1.02 ± 0.02
22,TAAAAAATGG,1 ± 0.044
23,TAAAAAGAAG,1 ± 0.045
24,TAAAAAGGGT,1 ± 0.048
25,TAAAAATAAA,0.995 ± 0.0065

row,Sequence,switch fluorescence ratio
1,TAAAAATGGT,1.01 ± 0.024
2,TAAAAATTTT,0.999 ± 0.01
3,TAAAACCGGG,1 ± 0.025
4,TAAAACCTGA,1.17 ± 0.054
5,TAAAACGCGT,1.68 ± 0.94
6,TAAAACTTAC,1.45 ± 0.1
7,TAAAAGAGGT,0.9962 ± 0.0081
8,TAAAAGCCTG,1.02 ± 0.052
9,TAAAAGCTGG,1.02 ± 0.078
10,TAAAAGGACG,1.09 ± 0.024
11,TAAAAGGGAG,1.03 ± 0.058
12,TAAAAGGGGC,0.985 ± 0.098
13,TAAAAGGGTG,0.977 ± 0.033
14,TAAAAGTAGT,1.03 ± 0.041
15,TAAAAGTTAA,0.981 ± 0.018
16,TAAAATAGTG,0.997 ± 0.047
17,TAAAATCATT,0.974 ± 0.035
18,TAAAATGGTT,1.02 ± 0.032
19,TAAAATTGAT,0.9818 ± 0.0038
20,TAAAATTGTT,0.991 ± 0.052
21,TAAACACTAA,1.01 ± 0.038
22,TAAACCGGTA,1.03 ± 0.031
23,TAAACGAAGC,1.06 ± 0.039
24,TAAACGGGGG,1.04 ± 0.045
25,TAAACGTCGA,0.962 ± 0.065

row,Sequence,switch fluorescence ratio
1,TAAACTGGTT,0.999 ± 0.029
2,TAAACTTTTG,0.9786 ± 0.0039
3,TAAAGAAAGG,1.02 ± 0.013
4,TAAAGACAGC,1.006 ± 0.0073
5,TAAAGAGATG,1.011 ± 0.0072
6,TAAAGAGGTA,1.02 ± 0.013
7,TAAAGCGGGC,1.05 ± 0.043
8,TAAAGCTGAT,1.01 ± 0.012
9,TAAAGGCTGG,1.015 ± 0.0052
10,TAAAGGGAAG,1.01 ± 0.021
11,TAAAGGGCT,1.001 ± 0.0055
12,TAAAGGTCGT,0.97444 ± 0.00071
13,TAAAGGTTGC,0.984 ± 0.02
14,TAAAGTGCGG,1.03 ± 0.058
15,TAAAGTTAAA,1 ± 0.048
16,TAAAGTTTGC,0.995 ± 0.017
17,TAAAGTTTGT,0.958 ± 0.026
18,TAAAGTTTTG,0.995 ± 0.017
19,TAAATAAATG,0.976 ± 0.048
20,TAAATACGGT,1.03 ± 0.062
21,TAAATACTCA,1.16 ± 0.083
22,TAAATATTAG,0.9837 ± 0.0031
23,TAAATATTGG,1.04 ± 0.034
24,TAAATATTTT,1.08 ± 0.14
25,TAAATCACGC,1.23 ± 0.24

row,Sequence,switch fluorescence ratio
1,TAAATCCAGG,1.24 ± 0.028
2,TAAATCCTGG,0.961 ± 0.023
3,TAAATCGGGG,0.995 ± 0.049
4,TAAATGAGGT,0.998 ± 0.015
5,TAAATGATAT,0.984 ± 0.02
6,TAAATGGGCT,1.04 ± 0.025
7,TAAATGGTTG,0.9863 ± 0.0094
8,TAAATGTATG,1.01 ± 0.041
9,TAAATGTCTT,1.025 ± 0.0077
10,TAAATGTGGG,1 ± 0.069
11,TAAATGTTGT,0.9869 ± 0.0055
12,TAAATTCCGA,1.07 ± 0.038
13,TAAATTGCG,0.9991 ± 0.0013
14,TAAATTTTCA,1.03 ± 0.031
15,TAACAATTTT,1.01 ± 0.019
16,TAACACGGTA,1.16 ± 0.0035
17,TAACAGCTGT,1.04 ± 0.041
18,TAACAGTAAC,1.08 ± 0.05
19,TAACAGTGAG,0.964 ± 0.021
20,TAACATACAT,1.18 ± 0.11
21,TAACATTTAT,0.979 ± 0.027
22,TAACATTTTT,1 ± 0.022
23,TAACCGGGGG,1.67 ± 1.2
24,TAACCTGCCC,2.26 ± 0.12
25,TAACGCGGAC,2.5233 ± 3.9e-05

row,Sequence,switch fluorescence ratio
1,TAACGGGGGG,0.999 ± 0.045
2,TAACGGGTTT,1.02 ± 0.015
3,TAACGGTCAG,1.025 ± 0.0095
4,TAACGGTGTA,1.02 ± 0.026
5,TAACGGTTAT,1.01 ± 0.024
6,TAACGGTTG,0.98 ± 0.017
7,TAACTAAACT,1.12 ± 0.08
8,TAACTGACGG,1.268 ± 0.012
9,TAAGAAAGGT,1 ± 0.0053
10,TAAGAAGGAA,0.9918 ± 0.0091
11,TAAGACAGGG,1.02 ± 0.028
12,TAAGACCAGT,0.981 ± 0.034
13,TAAGAGGCCT,1.02 ± 0.031
14,TAAGAGTTGG,0.999 ± 0.018
15,TAAGATATTT,0.9715 ± 0.0094
16,TAAGATTCGT,1 ± 0.031
17,TAAGATTTTC,0.973 ± 0.046
18,TAAGCAATGT,2.69 ± 1.1
19,TAAGCAGTGG,1.02 ± 0.022
20,TAAGCATTTC,1.34 ± 0.11
21,TAAGCCTGTT,1 ± 0.021
22,TAAGCGGCGC,0.989 ± 0.084
23,TAAGCGGGAC,2.88 ± 2
24,TAAGCGGGGC,1.0163 ± 0.00063
25,TAAGCTCTCG,0.9915 ± 0.0027

row,Sequence,switch fluorescence ratio
1,TAAGCTTGTA,1.01 ± 0.022
2,TAAGGAAAAT,0.998 ± 0.02
3,TAAGGACATT,1.03 ± 0.015
4,TAAGGACGGA,1.01 ± 0.071
5,TAAGGAGACA,1.01 ± 0.045
6,TAAGGAGGAG,1 ± 0.013
7,TAAGGAGGTC,0.99 ± 0.031
8,TAAGGAGTAG,0.991 ± 0.027
9,TAAGGATGGG,0.961 ± 0.032
10,TAAGGATGTA,1 ± 0.033
11,TAAGGCTAGT,0.969 ± 0.01
12,TAAGGCTTCG,0.96 ± 0.039
13,TAAGGGAAGC,1.04 ± 0.04
14,TAAGGGAGGT,0.996 ± 0.044
15,TAAGGGAGTA,1.004 ± 0.0065
16,TAAGGGCAAG,1.01 ± 0.013
17,TAAGGGGAAC,1.01 ± 0.03
18,TAAGGGGCAT,1.04 ± 0.093
19,TAAGGGGCTT,0.992 ± 0.021
20,TAAGGGGGCA,1.01 ± 0.052
21,TAAGGGGGTT,1.01 ± 0.036
22,TAAGGGGTCG,1.03 ± 0.046
23,TAAGGGGTGC,1.06 ± 0.014
24,TAAGGGTATG,0.965 ± 0.066
25,TAAGGGTGCT,1.039 ± 0.0037

row,Sequence,switch fluorescence ratio
1,TAAGGGTGGG,1 ± 0.043
2,TAAGGGTGGT,1.01 ± 0.027
3,TAAGGGTTAA,0.994 ± 0.012
4,TAAGGGTTG,0.985 ± 0.058
5,TAAGGGTTTG,0.977 ± 0.036
6,TAAGGTAAGT,0.987 ± 0.021
7,TAAGGTATGT,1.03 ± 0.026
8,TAAGGTGCTC,1.1 ± 0.01
9,TAAGGTGTTT,1.08 ± 0.076
10,TAAGGTTCTT,1.01 ± 0.011
11,TAAGGTTGCA,0.983 ± 0.032
12,TAAGTAATTT,1.01 ± 0.042
13,TAAGTACTTT,0.977 ± 0.025
14,TAAGTAGTAT,0.987 ± 0.017
15,TAAGTATTG,1.01 ± 0.017
16,TAAGTCCTTT,0.9828 ± 0.0041
17,TAAGTGCGGG,0.974 ± 0.0034
18,TAAGTGGGAA,1.01 ± 0.035
19,TAAGTGGTGC,1.05 ± 0.031
20,TAAGTGGTT,0.994 ± 0.011
21,TAAGTTAGAG,0.97 ± 0.024
22,TAAGTTATGT,1.01 ± 0.015
23,TAAGTTGAGC,0.965 ± 0.057
24,TAAGTTGGGG,0.995 ± 0.02
25,TAAGTTGGTT,1.06 ± 0.014
